Laboratory results reported in PMC4368477.

Target: HA head of H1N1 A/Solomon Islands/3/2006 (Influenza A virus, A/Solomon Islands/3/2006 (H1N1))
Test: BLI

CH65 Fab with light-chain reversion R29S
Kd: 1210 nM

CH67 Fab with light-chain reversion R29S
Kd: 370 nM | koff: 0.019 s⁻¹ | kon: 52000 M⁻¹ s⁻¹

CH67 Fab with light-chain reversions D33H and R31S
Kd: 1500 nM | koff: 0.067 s⁻¹
